The text below walks through data of PMC10681739, “High-throughput data and modeling reveal insights into the mechanisms of cooperative DNA-binding by transcription factor proteins”.

For one data set, the target named is T1, ETS1 (Homo sapiens, UniProt P14921).
T1 sequence: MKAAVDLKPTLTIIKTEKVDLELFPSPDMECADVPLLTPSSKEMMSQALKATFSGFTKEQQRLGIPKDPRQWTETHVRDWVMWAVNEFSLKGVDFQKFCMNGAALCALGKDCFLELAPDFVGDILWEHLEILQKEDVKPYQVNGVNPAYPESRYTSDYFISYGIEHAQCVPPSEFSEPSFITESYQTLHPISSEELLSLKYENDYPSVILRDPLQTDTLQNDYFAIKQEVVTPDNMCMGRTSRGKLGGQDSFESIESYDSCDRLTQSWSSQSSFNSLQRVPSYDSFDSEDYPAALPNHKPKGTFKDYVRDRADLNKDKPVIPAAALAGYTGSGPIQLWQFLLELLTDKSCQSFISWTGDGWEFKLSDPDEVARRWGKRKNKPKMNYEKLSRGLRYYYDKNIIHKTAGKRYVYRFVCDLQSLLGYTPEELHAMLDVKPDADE
The experiment in a line: gcPBM; 1 nM ETS1. The settings on record: tags: N-terminal GST (pDEST15), kept (PMC6008103); label: surface-attached array probe.

Another data set deals with RUNX1 (Homo sapiens, UniProt Q01196). The experiment in a line: gcPBM; 2 nM RUNX1. The settings on record: tags: N-terminal GST (pDEST15), kept (PMC6008103); label: surface-attached array probe.
RUNX1, sequence (Q01196 whole entry): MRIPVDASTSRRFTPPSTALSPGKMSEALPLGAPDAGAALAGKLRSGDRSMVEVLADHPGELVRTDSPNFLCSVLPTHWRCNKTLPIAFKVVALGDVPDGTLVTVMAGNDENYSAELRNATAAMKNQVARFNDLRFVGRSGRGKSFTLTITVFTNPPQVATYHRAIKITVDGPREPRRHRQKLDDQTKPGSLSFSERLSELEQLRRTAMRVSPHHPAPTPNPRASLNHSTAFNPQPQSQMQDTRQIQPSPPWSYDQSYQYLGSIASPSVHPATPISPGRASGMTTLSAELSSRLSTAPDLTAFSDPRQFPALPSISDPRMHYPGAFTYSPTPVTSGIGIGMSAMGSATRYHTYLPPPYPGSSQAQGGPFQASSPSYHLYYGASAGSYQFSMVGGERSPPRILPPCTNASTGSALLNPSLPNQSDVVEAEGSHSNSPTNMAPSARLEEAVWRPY

B1: Table S2 B row 1042 (dsDNA)
DNA 1: GGTCCGGATGTATAAAGCGCGGCCCCCTGGGGGGAG
DNA 2: CTCCCCCCAGGGGGCCGCGCTTTATACATCCGGACC
On to B1, for which the binding signal in the data set with ETS1 is 2790 PBM fluorescence, median of replicate spots.

B2: Table S2 B row 3031 (dsDNA)
DNA 1: CCCGGGGGCAGGAAATGTCGCCTTACCCTCAGCCTT
DNA 2: AAGGCTGAGGGTAAGGCGACATTTCCTGCCCCCGGG
As to B2, in the data set with ETS1, the binding signal was 4680 PBM fluorescence, median of replicate spots.

B3: Table S2 B row 159 (dsDNA)
DNA 1: GTAAAAGAGGAAGTAACACCTCCTTGACGTTGAGAC
DNA 2: GTCTCAACGTCAAGGAGGTGTTACTTCCTCTTTTAC
On to B3, for which the binding signal with ETS1 was 2720 PBM fluorescence, median of replicate spots.

B4: Table S2 B row 813 (dsDNA)
DNA 1: TGATGTAGAATCCGCTCGGCTTCCGGCGAGGGTGGG
DNA 2: CCCACCCTCGCCGGAAGCCGAGCGGATTCTACATCA
Take B4: the binding signal with ETS1 was 4160 PBM fluorescence, median of replicate spots.

B5: Table S2 B row 1859 (dsDNA)
DNA 1: GTGAACTTCCTCCCCCACTGCCTATTTTTACAGCAG
DNA 2: CTGCTGTAAAAATAGGCAGTGGGGGAGGAAGTTCAC
As for B5, in the data set with ETS1, the binding signal is 4830 PBM fluorescence, median of replicate spots.

B6: Table S2 B row 145 (dsDNA)
DNA 1: CCACCATCTTTCCGGCTCCCTCGCGACCTCCACGAC
DNA 2: GTCGTGGAGGTCGCGAGGGAGCCGGAAAGATGGTGG
Regarding B6, the binding signal with ETS1 is 3090 PBM fluorescence, median of replicate spots.

B7: Table S2 B row 2920 (dsDNA)
DNA 1: GGCGCTAGGCTTCCGGATCGCGCTGGGCGGAGTTCA
DNA 2: TGAACTCCGCCCAGCGCGATCCGGAAGCCTAGCGCC
Regarding B7, the binding signal with ETS1 was 2860 PBM fluorescence, median of replicate spots.

B8: Table S2 B row 573 (dsDNA)
DNA 1: GCCACCGTATTTCCGCGTTTTTCGAGGTAGGCGGGA
DNA 2: TCCCGCCTACCTCGAAAAACGCGGAAATACGGTGGC
Consider B8, for which, in the data set with ETS1, the binding signal was 3870 PBM fluorescence, median of replicate spots.

B9: Table S2 B row 1126 (dsDNA)
DNA 1: TCCAGCCCCACCGGAAGTGGATGTGATTAATCTAGT
DNA 2: ACTAGATTAATCACATCCACTTCCGGTGGGGCTGGA
As to B9, in the data set with ETS1, the binding signal is 25900 PBM fluorescence, median of replicate spots.

B10: Table S2 B row 799 (dsDNA)
DNA 1: ATGAACCACTTCCTGTGTGTTCCCAGAGAGGTCAGG
DNA 2: CCTGACCTCTCTGGGAACACACAGGAAGTGGTTCAT
As for B10, the binding signal with ETS1 is 25100 PBM fluorescence, median of replicate spots.

B11: Table S2 B row 540 (dsDNA)
DNA 1: AACAAACCGGATGGGGTTGCCACCTGCAATCTTGTC
DNA 2: GACAAGATTGCAGGTGGCAACCCCATCCGGTTTGTT
For B11, the binding signal with ETS1 is 3220 PBM fluorescence, median of replicate spots.

B12: Table S2 B row 1606 (dsDNA)
DNA 1: CCGCTTCCTTAGAGGTTAAGTGGTGGAGGTTCAGTT
DNA 2: AACTGAACCTCCACCACTTAACCTCTAAGGAAGCGG
B12: the binding signal with ETS1 is 3060 PBM fluorescence, median of replicate spots.

B13: Table S2 B row 1396 (dsDNA)
DNA 1: GAGGAGGAAAGCGGAAGCGCTGCCCTCAGTGGTAGG
DNA 2: CCTACCACTGAGGGCAGCGCTTCCGCTTTCCTCCTC
In the case of B13, the binding signal in the data set with ETS1 was 4360 PBM fluorescence, median of replicate spots.

B14: Table S3 B row 3820 (dsDNA)
DNA 1: TTTTGCGGTTTTTGATCTGGAAGCCACACAGCCTTA
DNA 2: TAAGGCTGTGTGGCTTCCAGATCAAAAACCGCAAAA
On to B14, for which the binding signal in the data set with RUNX1 was 57800 PBM fluorescence, median of replicate spots.

B15: Table S2 B row 1297 (dsDNA)
DNA 1: CCTAGAACCGGAAGAGAAAGGGGCTGGGGTGCAGCA
DNA 2: TGCTGCACCCCAGCCCCTTTCTCTTCCGGTTCTAGG
For the molecule B15, the binding signal in the data set with ETS1 is 4610 PBM fluorescence, median of replicate spots.

B16: Table S2 B row 1731 (dsDNA)
DNA 1: GACTGGTTTCCTGGTTTTGATGTAGTTTAGAGAAAA
DNA 2: TTTTCTCTAAACTACATCAAAACCAGGAAACCAGTC
Take B16: in the data set with ETS1, the binding signal was 3820 PBM fluorescence, median of replicate spots.

B17: Table S2 B row 3281 (dsDNA)
DNA 1: GACCTGACAACATCCTGGCGCAGTGAGTTGGCCCTG
DNA 2: CAGGGCCAACTCACTGCGCCAGGATGTTGTCAGGTC
B17: the binding signal with ETS1 was 3720 PBM fluorescence, median of replicate spots.

B18: Table S2 B row 3602 (dsDNA)
DNA 1: TGTCGGGCGGATGTGTACCGGCGTTAATATAGTAAG
DNA 2: CTTACTATATTAACGCCGGTACACATCCGCCCGACA
Consider B18, for which, in the data set with ETS1, the binding signal was 2800 PBM fluorescence, median of replicate spots.

B19: Table S2 B row 1459 (dsDNA)
DNA 1: CAGATCCGGCGTGGACGAAGCTCGGGAACTACAACA
DNA 2: TGTTGTAGTTCCCGAGCTTCGTCCACGCCGGATCTG
For the molecule B19, the binding signal in the data set with ETS1 was 5020 PBM fluorescence, median of replicate spots.

B20: Table S3 B row 2580 (dsDNA)
DNA 1: GTCGCTGCGGTTTTGGGGTTGGCATGCTGTCCTCTG
DNA 2: CAGAGGACAGCATGCCAACCCCAAAACCGCAGCGAC
On to B20, for which the binding signal in the data set with RUNX1 is 58800 PBM fluorescence, median of replicate spots.

B21: Table S3 B row 3808 (dsDNA)
DNA 1: GCCCTTCTTGCGGTTTTCATGGCAGGGTGTTAACAT
DNA 2: ATGTTAACACCCTGCCATGAAAACCGCAAGAAGGGC
Consider B21, for which the binding signal with RUNX1 was 60800 PBM fluorescence, median of replicate spots.

B22: Table S2 B row 1163 (dsDNA)
DNA 1: ATCACTTGTTTCCGCCAGCAAATCACAGGTCCCCAG
DNA 2: CTGGGGACCTGTGATTTGCTGGCGGAAACAAGTGAT
Take B22: the binding signal with ETS1 is 3770 PBM fluorescence, median of replicate spots.

B23: Table S2 B row 1543 (dsDNA)
DNA 1: AAACCAGAGAGGAAGTGGCACCTCATGGCCAGACTG
DNA 2: CAGTCTGGCCATGAGGTGCCACTTCCTCTCTGGTTT
For B23, the binding signal with ETS1 was 3160 PBM fluorescence, median of replicate spots.

B24: Table S2 B row 1979 (dsDNA)
DNA 1: CTGAAACAGGAAGCTGAGGGTGCCGTTGGGGGAGGA
DNA 2: TCCTCCCCCAACGGCACCCTCAGCTTCCTGTTTCAG
Regarding B24, the binding signal with ETS1 is 3960 PBM fluorescence, median of replicate spots.

B25: Table S2 B row 575 (dsDNA)
DNA 1: GCAGTGCAGGAAGTGCTTTGTCTGGTACAATCCCAA
DNA 2: TTGGGATTGTACCAGACAAAGCACTTCCTGCACTGC
B25: the binding signal with ETS1 is 4090 PBM fluorescence, median of replicate spots.

B26: Table S2 B row 3837 (dsDNA)
DNA 1: CTGCTTCCGGCCCCGGGGTTCGCTACCCCAAAATCC
DNA 2: GGATTTTGGGGTAGCGAACCCCGGGGCCGGAAGCAG
B26: the binding signal in the data set with ETS1 was 27500 PBM fluorescence, median of replicate spots.

B27: Table S2 B row 980 (dsDNA)
DNA 1: GCGGGCGGAAGTGCCGAGGTTGTACCTCGGCGCTGG
DNA 2: CCAGCGCCGAGGTACAACCTCGGCACTTCCGCCCGC
Regarding B27, in the data set with ETS1, the binding signal was 4750 PBM fluorescence, median of replicate spots.

B28: Table S2 B row 2874 (dsDNA)
DNA 1: TGAGCAAGTTCCTTCCTGTCTGTGCTCCAGGGTTTA
DNA 2: TAAACCCTGGAGCACAGACAGGAAGGAACTTGCTCA
Take B28: in the data set with ETS1, the binding signal was 5140 PBM fluorescence, median of replicate spots.

B29: Table S2 B row 3902 (dsDNA)
DNA 1: TGGGGCCCGGAAGCGCTGGCGCCTTACGGCCAGAAG
DNA 2: CTTCTGGCCGTAAGGCGCCAGCGCTTCCGGGCCCCA
As for B29, in the data set with ETS1, the binding signal was 3570 PBM fluorescence, median of replicate spots.

B30: Table S2 B row 3084 (dsDNA)
DNA 1: TTTGCACACATCCTGGCCTCCGCCTGAGCACCTCCT
DNA 2: AGGAGGTGCTCAGGCGGAGGCCAGGATGTGTGCAAA
B30: in the data set with ETS1, the binding signal was 3370 PBM fluorescence, median of replicate spots.

B31: Table S2 B row 544 (dsDNA)
DNA 1: GCTCCCGGATGTTCTGGGGATCAGCGCCCGCCTGGC
DNA 2: GCCAGGCGGGCGCTGATCCCCAGAACATCCGGGAGC
Consider B31, for which, in the data set with ETS1, the binding signal is 3300 PBM fluorescence, median of replicate spots.

B32: Table S2 B row 3477 (dsDNA)
DNA 1: CTACCGGGAGTGCAGGTCGCGCTTCCGGCGGCGTCC
DNA 2: GGACGCCGCCGGAAGCGCGACCTGCACTCCCGGTAG
As to B32, the binding signal with ETS1 was 3610 PBM fluorescence, median of replicate spots.

B33: Table S2 B row 875 (dsDNA)
DNA 1: AGGCAGCACAGGAAGTTATAACTACATGTACACTTG
DNA 2: CAAGTGTACATGTAGTTATAACTTCCTGTGCTGCCT
As for B33, the binding signal with ETS1 is 4250 PBM fluorescence, median of replicate spots.

B34: Table S2 B row 3968 (dsDNA)
DNA 1: GCCGCCGTTTCCTGATTGGTCGTGGGTGGCTACCTC
DNA 2: GAGGTAGCCACCCACGACCAATCAGGAAACGGCGGC
Take B34: the binding signal in the data set with ETS1 was 4470 PBM fluorescence, median of replicate spots.

B35: Table S2 B row 306 (dsDNA)
DNA 1: GAGAAACAGGAAGAGGGGTGGTGCTTACGGAACACG
DNA 2: CGTGTTCCGTAAGCACCACCCCTCTTCCTGTTTCTC
As for B35, the binding signal in the data set with ETS1 was 2960 PBM fluorescence, median of replicate spots.

B36: Table S2 B row 479 (dsDNA)
DNA 1: CACTTCCCCCAGCCTCTCTTTTTAATACGACAATAG
DNA 2: CTATTGTCGTATTAAAAAGAGAGGCTGGGGGAAGTG
Turning to B36, the binding signal with ETS1 is 2920 PBM fluorescence, median of replicate spots.

B37: Table S2 B row 4083 (dsDNA)
DNA 1: GCCCCAGCGTTTCCTCTTACCCAAAATGCCCCGCCC
DNA 2: GGGCGGGGCATTTTGGGTAAGAGGAAACGCTGGGGC
B37: the binding signal with ETS1 was 3440 PBM fluorescence, median of replicate spots.

B38: Table S2 B row 2699 (dsDNA)
DNA 1: CTCAGGAATGCGGAAGTGCTCTGTGAGCACCCACCA
DNA 2: TGGTGGGTGCTCACAGAGCACTTCCGCATTCCTGAG
On to B38, for which the binding signal in the data set with ETS1 is 4940 PBM fluorescence, median of replicate spots.

B39: Table S3 B row 3968 (dsDNA)
DNA 1: CCGAGTTGCGGTTTCTCCGTTAGTGCTTACGGGTTG
DNA 2: CAACCCGTAAGCACTAACGGAGAAACCGCAACTCGG
Turning to B39, the binding signal with RUNX1 is 54300 PBM fluorescence, median of replicate spots.
